# Measured values as given in patent US20090265797A1 (PIERRE FABRE MEDICAMENT, published 2009).
# B1: Humanized I-3466 IgG1 antibody (antibody, V domains shown)
# VH: EVQLVESGGDLVQPGGSLRLSCAASGFTFNNYIMSWVRQAPGKGLEWVATISGGGSYTFYPDSVKGRFTISRDNSKNTLYLQMNSLRAEDTAVYFCTRNQLLTGMINPLTTPRAWFTYWGQGTLVTVSS
# VL: DIVMTQSPDSLAVSLGERATINCKSSQSLLDSRTRKNYLAWYQQKPGQPPKLLIYWASTRESGVPDRFSGSGSGTDFTLTISSLQAEDVAVYYCKQSYNLFTFGGGTKVEIK
# B2: murine monoclonal antibody I-3466 (antibody, V domains shown)
# VH: EVMLVESGGDLVKPGGSLKLSCAASGFTFNNYIMSWVRQTPEKRLEWVATISGGGSYTFYPDSVKGRFSISRDNAKNTLYLQMSSLRSEDTAMYFCTRNQLLTGMINPLTTPRAWFTYWGQGTLVTVSA
# VL: DIVMSQSPSSLAVSAGEKVTMNCKSSQSLLDSRTRKNYLAWYQQKPGQSPKLLIYWASTRESGVPDRFTGSGSGTDFTLTISSVQAEDLAVYYCKQSYNLFTFGGGTKLEIK
# notes: a mouse IgG1 (9G4) served as its isotype control
# Legend:
# [1] = target: soluble human insulin-like growth factor-1 receptor (hIGF-IR) extra-cellular domain (ECD) (human) (UniProt P08069); assay: SPR, BIAcore T100, 25 °C; antibody captured by anti-human IgG Fc on CM5, hIGF-IR-ECD as analyte (6.25-100 nM)
# [2] = target: soluble human insulin-like growth factor-1 receptor (hIGF-IR) extra-cellular domain (ECD) (human) (UniProt P08069); assay: SPR, BIAcore T100, 25 °C; antibody captured by anti-human IgG Fc on CM5, hIGF-IR-ECD as analyte; KD = kd/ka
# [3] = target: IGF-IR on MCF-7 or HT29 cells (human, UniProt P08069 31-1367); assay: cell-based or functional assay
# [4] = target: T1, human IGF-IR (hIGF-IR) from membrane lysate of NIH 3T3 cells stably transfected with the human IGF-IR cDNA, … (human, UniProt P08069 31-1367); assay: competition of 100 pM [125I]-IGF1 binding to immobilized hIGF-IR; reference: unlabeled IGF1
# T1 construct: Whole receptor (alpha and beta subunits from one precursor) solubilised from membranes, not on cells; also called immobilized hIGF-IR; human IGF-1 receptor
# Description: (§1) Two hundred μl of a 20 μg/ml antibody solution in PBS were added to each well and incubated overnight at +4° C. The buffer containing residual 17-69 not attached to protein A was removed by aspiration. Two hundred μl of the membrane lysate at 100 μg/ml were further added and incubated for 2 h at room temperature to immobilize IGF-IR. Non captured proteins were removed by aspiration. […] The plates were incubated at room temperature for 2 h, then counted on a Packard Top Count Microplate Scintillation Counter.
# (§2) Concentrations of the various inhibitors required to inhibit the radioligand binding by 50% (IC₅₀) were determined graphically from the sigmoid competition curves obtained (FIGS. 1 and 2).
# [5] = target: T1, human IGF-IR (hIGF-IR) from membrane …; assay: competition of 100 pM [125I]-IGF1 binding to hIGF-IR captured by antibody 17-69 on Protein A FlashPlate; displacement of [^125I]-IGF1 (not [^125I]-IGF2) from immobilized hIGF-IR
# Description: as §1, §2
# [6] = target: T1, human IGF-IR (hIGF-IR) from membrane …; assay: competition of 100 pM [125I]-IGF2 binding to hIGF-IR captured by antibody 17-69 on Protein A FlashPlate
# Description: as §1, §2
# T1 sequence (P08069 31-1367 limits assumed): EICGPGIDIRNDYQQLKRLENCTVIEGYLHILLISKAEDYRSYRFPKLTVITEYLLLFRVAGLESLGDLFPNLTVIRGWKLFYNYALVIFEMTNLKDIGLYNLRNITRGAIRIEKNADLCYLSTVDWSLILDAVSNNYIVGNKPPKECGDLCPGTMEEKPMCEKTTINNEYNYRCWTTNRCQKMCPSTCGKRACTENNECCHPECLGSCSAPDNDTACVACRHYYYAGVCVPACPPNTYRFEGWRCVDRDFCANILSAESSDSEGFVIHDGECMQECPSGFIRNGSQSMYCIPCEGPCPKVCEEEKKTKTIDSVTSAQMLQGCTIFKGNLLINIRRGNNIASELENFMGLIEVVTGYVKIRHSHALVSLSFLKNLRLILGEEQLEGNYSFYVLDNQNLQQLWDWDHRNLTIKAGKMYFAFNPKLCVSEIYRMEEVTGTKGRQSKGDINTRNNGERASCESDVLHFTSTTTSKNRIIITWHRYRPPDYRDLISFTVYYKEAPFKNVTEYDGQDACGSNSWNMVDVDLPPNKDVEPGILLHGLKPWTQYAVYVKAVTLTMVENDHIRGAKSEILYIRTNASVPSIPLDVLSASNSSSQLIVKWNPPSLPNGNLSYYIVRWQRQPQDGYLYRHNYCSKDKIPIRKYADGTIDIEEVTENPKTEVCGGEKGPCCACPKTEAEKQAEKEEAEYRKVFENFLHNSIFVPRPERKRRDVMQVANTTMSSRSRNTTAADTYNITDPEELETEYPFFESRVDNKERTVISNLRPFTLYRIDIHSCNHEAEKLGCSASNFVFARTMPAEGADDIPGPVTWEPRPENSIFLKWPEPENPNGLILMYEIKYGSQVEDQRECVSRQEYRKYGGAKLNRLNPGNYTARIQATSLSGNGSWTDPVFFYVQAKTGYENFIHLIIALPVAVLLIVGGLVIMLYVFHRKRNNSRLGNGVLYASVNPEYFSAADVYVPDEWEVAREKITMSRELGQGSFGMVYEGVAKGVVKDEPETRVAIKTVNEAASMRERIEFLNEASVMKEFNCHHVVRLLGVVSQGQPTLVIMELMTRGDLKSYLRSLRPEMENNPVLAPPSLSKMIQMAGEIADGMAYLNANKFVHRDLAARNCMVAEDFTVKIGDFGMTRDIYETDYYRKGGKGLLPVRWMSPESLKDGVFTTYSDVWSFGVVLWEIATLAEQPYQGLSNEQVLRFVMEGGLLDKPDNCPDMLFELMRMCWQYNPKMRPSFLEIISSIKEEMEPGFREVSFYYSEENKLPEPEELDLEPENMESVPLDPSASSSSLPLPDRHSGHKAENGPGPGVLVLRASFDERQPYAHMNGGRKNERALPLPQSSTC
# Sequence of IGF-IR on MCF-7 or HT29 cells (P08069 31-1367): as the sequence (P08069 31-1367 limits assumed) above
Binder,koff [1] [s⁻¹],kon [1] [M⁻¹ s⁻¹],Kd [2] [nM],IC50 of inhibition of IGF1-induced proliferation of MCF-7 cells [3] [nM],IC50 of inhibition of IGF2-induced proliferation of MCF-7 cells [3] [nM],fold lower IC50 than non radiolabeled IGF1 [4] [fold],IC50 [5] [nM],IC50 [6] [nM]
B1,6.29e-05,184000,0.342,,,,,
B2,,,,0.7,0.5,30,0.021,~0.1
